# Laboratory results: paper PMC10232262
# Molecular target: TRPA1 tagged with V5 and 6x histidine in the C terminus (UniProt Q8BLA8)
# Assay: pull-down; nickel bead (Ni-NTA) pull-down of TRPA1-V5-His from HEK293 cells; IQGAP1 detected with anti-IQGAP1; cells untreated or treated with AITC (400 uM), AITC with HC-030031 (10 uM), AITC in Ca2+-free solution, or forskolin
# Chain of UniProt Q8BLA8 (Q8BLA8 whole entry): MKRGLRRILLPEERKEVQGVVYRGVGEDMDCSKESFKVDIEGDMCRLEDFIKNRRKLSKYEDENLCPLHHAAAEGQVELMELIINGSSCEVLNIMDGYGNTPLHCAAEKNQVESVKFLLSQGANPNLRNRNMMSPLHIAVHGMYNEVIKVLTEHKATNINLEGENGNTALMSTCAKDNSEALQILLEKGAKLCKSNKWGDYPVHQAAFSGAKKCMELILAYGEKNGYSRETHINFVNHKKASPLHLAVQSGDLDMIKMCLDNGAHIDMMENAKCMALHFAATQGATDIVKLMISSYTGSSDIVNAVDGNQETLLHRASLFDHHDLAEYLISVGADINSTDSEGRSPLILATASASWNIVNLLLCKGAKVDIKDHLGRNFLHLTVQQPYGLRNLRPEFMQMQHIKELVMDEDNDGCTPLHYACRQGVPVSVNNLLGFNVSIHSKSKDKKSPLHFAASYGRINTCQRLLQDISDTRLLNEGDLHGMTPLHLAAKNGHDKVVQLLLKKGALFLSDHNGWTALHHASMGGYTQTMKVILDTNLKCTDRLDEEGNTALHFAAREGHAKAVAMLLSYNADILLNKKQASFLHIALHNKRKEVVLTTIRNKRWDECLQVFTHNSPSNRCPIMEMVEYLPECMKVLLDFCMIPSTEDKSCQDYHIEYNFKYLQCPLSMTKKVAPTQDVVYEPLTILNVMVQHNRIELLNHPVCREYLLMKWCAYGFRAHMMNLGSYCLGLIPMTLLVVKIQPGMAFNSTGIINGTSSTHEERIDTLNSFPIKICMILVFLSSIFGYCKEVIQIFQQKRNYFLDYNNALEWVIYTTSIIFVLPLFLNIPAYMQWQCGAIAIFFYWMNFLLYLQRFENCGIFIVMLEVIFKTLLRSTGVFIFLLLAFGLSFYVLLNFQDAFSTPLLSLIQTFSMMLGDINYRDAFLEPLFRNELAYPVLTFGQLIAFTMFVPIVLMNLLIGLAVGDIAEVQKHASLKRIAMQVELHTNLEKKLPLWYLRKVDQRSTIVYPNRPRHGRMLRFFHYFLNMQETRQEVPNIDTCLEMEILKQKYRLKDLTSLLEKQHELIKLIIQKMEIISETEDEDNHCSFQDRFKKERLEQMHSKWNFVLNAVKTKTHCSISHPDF
row,Substance,"relative band density (basal, against wild-type IQGAP1 basal = 1.0) (relative to the first band)"
1,IQ motif (L700-Q905) deleted IQGAP1 (from UniProt P46940 1-1657) (natural protein),1.61
2,Cdc42 binding region (M1054-K1077) deleted IQGAP1 (from UniProt P46940 1-1657) (natural protein),0.53
